Patent publication US20150299708, “CD133 APTAMERS FOR DETECTION OF CANCER STEM CELLS” (Deakin University, published 2015)

T1: CD133 (prominin-1) (Homo sapiens, UniProt O43490 O43490:20-865)
T1 sequence: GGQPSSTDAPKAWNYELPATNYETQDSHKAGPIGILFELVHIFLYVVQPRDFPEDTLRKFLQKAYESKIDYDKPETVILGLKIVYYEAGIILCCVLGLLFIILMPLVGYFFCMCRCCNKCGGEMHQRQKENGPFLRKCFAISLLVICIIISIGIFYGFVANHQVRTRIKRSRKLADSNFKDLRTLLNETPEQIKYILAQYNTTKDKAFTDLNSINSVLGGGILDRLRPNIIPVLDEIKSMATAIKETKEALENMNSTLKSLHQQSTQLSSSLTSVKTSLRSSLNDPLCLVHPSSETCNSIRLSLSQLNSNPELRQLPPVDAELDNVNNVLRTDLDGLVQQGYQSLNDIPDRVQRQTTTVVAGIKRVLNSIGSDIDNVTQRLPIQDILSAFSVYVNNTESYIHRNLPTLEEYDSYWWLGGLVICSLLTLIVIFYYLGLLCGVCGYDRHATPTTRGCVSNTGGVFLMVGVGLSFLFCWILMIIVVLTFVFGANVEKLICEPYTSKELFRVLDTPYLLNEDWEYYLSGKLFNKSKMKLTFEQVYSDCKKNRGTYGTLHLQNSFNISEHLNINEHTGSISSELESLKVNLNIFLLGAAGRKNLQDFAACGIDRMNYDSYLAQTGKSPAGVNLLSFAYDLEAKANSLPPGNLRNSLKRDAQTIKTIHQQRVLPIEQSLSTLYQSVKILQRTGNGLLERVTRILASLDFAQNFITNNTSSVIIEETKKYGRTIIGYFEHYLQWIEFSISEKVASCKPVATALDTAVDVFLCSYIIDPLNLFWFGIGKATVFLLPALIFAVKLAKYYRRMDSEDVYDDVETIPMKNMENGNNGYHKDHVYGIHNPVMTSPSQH

B1: CD133-2-1 (ssRNA)
RNA: CAGAACGUAUACUAUUCUG
modifications: 2'-F pyrimidines; 3'-inverted dT
B2: CD133-1-2-2 (ssRNA)
RNA: CCCUCCUACAUAGGG
modifications: 2'-F pyrimidines; 3'-inverted dT

What was measured:
[1] = test system: CD133-negative cell surface (HEK293T or T98G; no CD133) (Homo sapiens); experiment: flow; settings: 2'-F pyrimidines, 3'-inverted dT, 37 C
CD133 (prominin-1) [2] = molecular target: T1, CD133 (prominin-1); experiment: flow; Hep3B cells; 37 C 30 min, DPBS + MgCl2; settings: tags: endogenous CD133 on CD133-positive HT-29 or Hep3B cells (ATCC); label: 5'-DY647
Text: (§1) CCCTCCTACATAGGGAGGAACGAGTTACTATAG -3′, and antisense oligonucleotide, 5′-CTATAGTAACTCGTTCCTCCCTATGTAGGAGGGTGGGTTGAGCGTTTATTCTTGTCTC -3′; CD133-1-2 (2nd truncation) was derived from a sense oligonucleotide: 5′-TAATACGACTCACTATAGCTCAACCCACCCTCCTACATAGGGAGGAACGAGT-3′and an antisense oligonucleotide, 5′-ACTCGTTCCTCCCTATGTAGGAGGGTGGGTTGAGC -3′; CD133-1-2-1 (3rd Truncation) was derived from a sense oligonucleotide, 5′-TAATACGACTCACTATACCACCCTCCTACATAGGGTGG-3′ and an antisense oligonucleotide, 5′-CCACCCTATGTAGGAGGGTGG-3′; and CD133-1-2-2 (4th Truncation) was derived from a sense oligonucleotide, TAATACGACTCACTATACCCTCCTACATAGGG-3′ and an antisense oligonucleotide, 5′-CCC TAT GTA GGA GGG-3′. CD133-2-1 (1st Truncation) was derived from a sense oligonucleotide 5′-TAATACGACTCACTATACAGAACGTATACTATTCTG-3′ and an antisense oligonucleotide, 5′-CAG AAT AGT ATA CGT TCT G-3′ (T7 RNA promoter sequence is underlined). […] The binding affinities of these two aptamers and a negative control aptamer was determined using CD133 positive (HT-29 and Hep3B) and CD133 negative cell lines (T98G and HEK293T). […]

CD133 (prominin-1) [3] = molecular target: T1, CD133 (prominin-1); experiment: flow; HT-29 cells; 37 C 30 min, DPBS + MgCl2; settings: tags: endogenous CD133 on CD133-positive HT-29 or Hep3B cells (ATCC); label: 5'-DY647
Text: as §1

CD133 (prominin-1) [4] = molecular target: T1, CD133 (prominin-1); experiment: flow; HT-29 cells; 37 C 30 min, DPBS + MgCl2, tRNA, salmon sperm DNA; settings: tags: endogenous CD133 on CD133-positive HT-29 or Hep3B cells (ATCC); label: 5'-DY647
Text: as §1

Molecule	Kd ([1]; CD133-negative HEK293T cells) [µM]	Kd ([1]; CD133-negative T98G cells) [µM]	Kd (CD133 (prominin-1) [2]) [µM]	Kd (CD133 (prominin-1) [3]) [µM]	Kd (CD133 (prominin-1) [4]) [µM]
CAGAACGUAUACUAUUCUG [CD133-2-1]	1740	4.76			
CCCUCCUACAUAGGG [CD133-1-2-2]	120	275			
B1			0.052	0.145	
B2			0.032		0.082
